Experimental findings from IntAct's records for PubMed 15933069 are described below.

Assay [1] concerns the target T1, kmt5a_human KMT5A (UniProt Q9NQR1).
T1 sequence: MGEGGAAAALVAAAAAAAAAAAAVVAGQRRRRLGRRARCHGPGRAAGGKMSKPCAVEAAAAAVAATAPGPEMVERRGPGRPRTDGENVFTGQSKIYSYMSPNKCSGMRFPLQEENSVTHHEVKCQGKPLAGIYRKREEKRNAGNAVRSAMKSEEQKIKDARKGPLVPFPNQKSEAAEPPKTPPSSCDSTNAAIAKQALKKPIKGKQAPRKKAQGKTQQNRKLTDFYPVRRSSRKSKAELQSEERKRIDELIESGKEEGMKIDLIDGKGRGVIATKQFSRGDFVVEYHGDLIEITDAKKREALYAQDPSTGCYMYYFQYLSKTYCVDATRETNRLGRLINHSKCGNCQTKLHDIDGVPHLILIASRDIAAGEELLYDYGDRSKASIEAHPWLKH

Assay [2] concerns the target T1, kmt5a_human KMT5A. This is another data set of the same source.

For “Histone H4 (Homo sapiens) (from UniProt P62805) H19Y”, in the assay with kmt5a_human KMT5A [1], the “effect of a mutation on the interaction” value is “decreasing interaction”.
Regarding “Histone H4 (Homo sapiens) (from UniProt P62805) H19A”, in the assay with kmt5a_human KMT5A [2], the “effect of a mutation on the interaction” value is “decreasing interaction”.
Consider “Histone H4 (Homo sapiens) (from UniProt P62805) H19Q”, for which, in the assay with kmt5a_human KMT5A [1], the “effect of a mutation on the interaction” value is listed as “decreasing interaction”.
